Measured values as given in patent US20200347130A1 (JIANGSU HENGRUI MEDICINE, published 2020).

Tests used:
[1] = target: T1, CD96 extracellular region with His tag (CD96-His) (human, UniProt P40200 22-519); experiment: ELISA, CD96-His coated
T1 construct: also called CD96-ECD-His; Bio-CD96-His (biotin-labelled form)
T1 sequence: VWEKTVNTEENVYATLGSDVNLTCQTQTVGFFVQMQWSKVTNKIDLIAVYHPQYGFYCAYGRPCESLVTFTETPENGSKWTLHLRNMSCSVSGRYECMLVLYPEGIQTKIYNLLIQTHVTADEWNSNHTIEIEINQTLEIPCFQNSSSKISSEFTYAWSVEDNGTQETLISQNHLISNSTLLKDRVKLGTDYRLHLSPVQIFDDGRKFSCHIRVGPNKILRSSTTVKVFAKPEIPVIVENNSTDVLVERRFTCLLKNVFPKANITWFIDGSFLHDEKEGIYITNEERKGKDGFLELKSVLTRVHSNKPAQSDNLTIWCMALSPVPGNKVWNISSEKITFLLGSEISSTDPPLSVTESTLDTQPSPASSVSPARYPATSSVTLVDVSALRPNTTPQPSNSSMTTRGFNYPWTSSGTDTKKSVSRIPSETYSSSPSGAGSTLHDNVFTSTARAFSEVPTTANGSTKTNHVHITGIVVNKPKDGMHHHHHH
Description: The binding capacity of the anti-CD96 antibody was tested by ELISA to determine the binding of the antibody to human CD96 protein. The His-tagged CD96 fusion protein was used to coat the microtiter plate, and the intensity of the signal after adding with the antibody was used for evaluating the binding activity of the antibody and CD96. The specific experimental method is as follows:
CD96-His with the sequence of SEQ ID NO: 4 prepared in Embodiment 1 was diluted to a concentration of 2 μg/ml with PBS buffer (Shanghai Yuanpei Biotechnology Co., Ltd. Cat No. B320), pH 7.4, added to a 96-well microtiter plate (Corning, Cat No. CLS3590-100EA) at a volume of 50 μl/well, and placed in an incubator at 37° C. for 2 hours. After discarding the liquid, 250 μl/well of 5% skim milk (BD, Cat No. 232100) blocking solution diluted with PBS was added, and the plate was incubated at 37° C. for 2.5 hours or at 4° C. overnight (16-18 hours) for blocking. After blocking, the blocking solution was discarded, and the plate was washed 4 times with PBST buffer (pH 7.4 PBS containing 0.05% tween-20). 50 μl/well of different concentrations of the antibodies to be tested (hybridoma purification antibody or humanized antibody) diluted with sample dilution was added, and the plate was incubated in an incubator at 37° C. for 1 hour. […] After washing the plate 4 times with PBST, 50 μl/well of TMB chromogenic substrate (KPL, Cat No. 52-00-03) was added, and the plate was incubated at room temperature for 5-15 minutes, followed by adding 50 μl/well of 1M H₂SO₄ to stop the reaction. The absorption value was read at 450 nm with a NOVOStar microplate reader, and the EC50 value of the binding of CD96 antibody to human CD96 was calculated (see Table 13).

[2] = target: T2, Full-length human CD96 on CHO-S cells (human, UniProt P40200 22-585); experiment: cell ELISA, fixed CD96-overexpressing CHO-S cells
T2 construct: also called CD96-CHOs; hCD96-CHOs
T2 sequence: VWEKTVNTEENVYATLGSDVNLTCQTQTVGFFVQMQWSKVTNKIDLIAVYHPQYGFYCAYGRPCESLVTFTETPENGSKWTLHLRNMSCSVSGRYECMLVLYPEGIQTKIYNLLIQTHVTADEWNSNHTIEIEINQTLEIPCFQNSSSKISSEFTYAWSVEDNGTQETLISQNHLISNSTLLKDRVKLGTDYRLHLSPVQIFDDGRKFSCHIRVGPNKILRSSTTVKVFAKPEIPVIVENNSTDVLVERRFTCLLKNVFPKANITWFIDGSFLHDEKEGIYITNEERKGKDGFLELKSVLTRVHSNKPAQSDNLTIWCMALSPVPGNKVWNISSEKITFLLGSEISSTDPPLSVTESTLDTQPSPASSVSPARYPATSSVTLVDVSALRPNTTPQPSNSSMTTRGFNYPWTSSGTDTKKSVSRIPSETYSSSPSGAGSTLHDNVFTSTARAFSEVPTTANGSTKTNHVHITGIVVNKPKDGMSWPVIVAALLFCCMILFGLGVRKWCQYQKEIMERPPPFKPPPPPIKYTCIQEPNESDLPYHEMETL
Description: The binding capacity of the anti-CD96 antibody was tested by binding experiments of the antibody to human CD96 protein overexpressing CHO-S cells. The full-length CD96 plasmid was transfected into CHO-S cells by electrotransfection, and cells were then screened for two weeks under pressure for the detection of the expression of CD96. After the over-expressing cells were fixed at the bottom of the 96-well plate, the density of the signal after adding the antibody was used to judge the binding activity of the antibody to CD96 overexpressing CHO-S cells. The specific experimental method is as follows:
The cells were seeded at a density of 9×10⁴/100 μL/well in a 96-well plate and cultured overnight. After aspirating the supernatant, the plate was washed once with PBS, subsequently, 100 μl/well immunostaining fixation solution (Biyuntian, P0098) was added and fixed for one hour at room temperature, and the plate was washed three times with PBS. Once the liquid was discarded, 250 μl/well of 5% skim milk (BD, 232100) blocking solution diluted with PBS was added, and the plate was blocked in an incubator at 37° C. for 2.5 hours. After blocking, the blocking solution was discarded, the plate was washed 4 times with PBST buffer (pH 7.4 PBS containing 0.05% tween-20), followed by diluting 50 μl/well of different concentrations of the antibodies (hybridoma purification antibody or humanized antibody) to be tested the plate was incubated in an incubator at 37° C. for 2 hours. After incubation, the plate was wash 4 times with PBST. […] After washing the plate 4 times with PBST, 50 μl/well of TMB chromogenic substrate (KPL, Cat No. 52-00-03) was added, the plate was incubated at room temperature for 10-25 min, followed by adding 50 μl/well of 1M H₂SO₄ to stop the reaction. The absorption value was read at 450 nm with a NOVOStar microplate reader, and the EC50 value of the CD96 antibodies to CD96 overexpressing CHO-S cells was calculated (see FIG. 1 and Table 15).

[3] = target: T1, CD96 extracellular region with His tag …; experiment: SPR (Biacore), antibody captured, CD96-ECD-His as mobile phase
Source text: Protein A biosensor chip was used to capture antibodies to be tested, then CD96 antigen was flowed on the surface of the chip, and real time reaction signal was detected by Biacore to obtain the binding and dissociation curve. After the dissociation of each experimental cycle was completed, the biosensor chip was washed and regenerated with a glycine-hydrochloric acid regeneration solution (pH 1.5).

[4] = target: T1, CD96 extracellular region with His tag …; experiment: blocking cell ELISA: antibody premixed with Bio-CD96-His (0.5 ug/mL), binding to fixed CD155-CHO cells
Description: CD155-CHO cells (constructed by Shanghai Hengrui) were seeded in 96-well culture plates at a density of 9×10⁴/100 μL/well and cultured overnight. After aspirating the supernatant, the plate was washed once with PBS, 100 μl/well of immunostaining fixation solution (Biyuntian, Cat No. P0098) was added and fixed for one hour at room temperature, and the plate was washed three times with PBS. After discarding the liquid, 250 μl/well of 5% skim milk (BD, Cat No. 232100) blocking solution diluted with PBS was added, and the plate was blocked in an incubator at 37° C. for 2.5 hours. After blocking, the blocking solution was discarded, subsequently, the plate was washed 4 times with PBST buffer (pH 7.4 PBS containing 0.05% tween-20). 50 μl/well of antigen-antibody pre-incubation solution (gradient concentrations of the hybridoma antibody to be tested and CD96-Fc at a final concentration of 0.5 μg/mL were premixed at 37° C. for 30 minutes, or gradient concentrations of humanized antibody samples and Bio-CD96-His at a final concentration of 0.5 μg/mL were premixed at 37° C. for 30 minutes) (Biotin-labeled kit, Dongren Chemical, Cat No. LK03) was added, and the plate was incubated in an incubator at 37° C. for 2 hours. After incubation, the reaction solution in the microtiter plate was discarded, the plate was washed 4 times with PBST, and 50 μl/well of HRP-labeled goat anti-human secondary antibody (Jackson Immuno Research, Cat No. 109-035-003) diluted with sample dilution or HRP-labeled streptavidin diluted with sample dilution (Sigma, Cat No. 52438) was added, followed by incubating at 37° C. for 1 hour. After washing the plate 4 times with PBST, 50 μl/well of TMB chromogenic substrate (KPL, Cat No. 52-00-03) was added, the plate was incubated at room temperature for 10-20 minutes, followed by adding 50 μl/well of 1M H₂SO₄ to stop the reaction. The absorption value was read at 450 nm with a NOVOStar microplate reader, and the EC50 value of the effect of CD96 antibody on blocking the binding between the antigens and CD155-CHO cells was calculated (see FIG. 2 and Table 16).

Binder	EC50 [1] [pM]	EC50 [2] [pM]	Kd [3] [pM]	IC50 [4] [pM]
h1722-005 (antibody, V domains shown, Only variable regions are tied to this name) VH: EVQLVQSGAEVKKPGSSVKVSCKASGGTFSDYWMHWVRQAPGQGLEWMGMLHPNSGTTSFNEKFKIRVTITADKSTSTAYMELSSLRSEDTAVYYCARDYSGPFAYWGQGTLVTVSS VL: DIQMTQSPSSLSASVGDRVTITCSASSSVNYIHWYQQKPGKAPKRWIYDTSKLASGVPSRFSGSGSGTDFTLTISSLQPEDFATYYCQQWRSNPLTFGQGTKLEIK	72	45	9870	
h1719-003 (antibody, V domains shown, also called M719-003) VH: EVTLKESGPVLVKPTETLTLTCTVSGFSLSSYGVSWVRQPPGKGLEWLGVIWGDGNTNYHSVLISRLTISKDTSKSQVVLTLTNMDPVDTATYYCAKNNYYGSRYGYPMDYWGQGTTVTVSS VL: DIQMTQSPSSVSASVGDRVTITCKATQDVGTAVAWYQQKPGKAPKLLIYWASTRHTGVPSRFSGSGSGTDFTLTISSLQPEDFATYYCQQYGSSVLTFGGGTKVEIK	85	28		96
